Source: the supplement of paper PMC11246515
± gives the standard deviation of the averaged measurements.

Test: total protein half-life in vivo (active degradation + dilution); higher = more stable protein
[1] = E. coli NCM3722 delta-clpP delta-lon delta-hslV, growth: N-lim chemostat, doubling time 6 h
[2] = wild type E. coli NCM3722, growth: C-lim chemostat, doubling time 3 h
[3] = wild type E. coli NCM3722, growth: C-lim chemostat, doubling time 6 h
[4] = wild type E. coli NCM3722, growth: C-lim chemostat, doubling time 12 h
[5] = E. coli NCM3722 delta-clpP, growth: N-lim chemostat, doubling time 6 h
[6] = wild type E. coli NCM3722, growth: N-lim chemostat, doubling time 6 h
[7] = wild type E. coli NCM3722, growth: N-lim chemostat, doubling time 12 h
[8] = wild type E. coli NCM3722, growth: P-lim chemostat, doubling time 6 h
[9] = wild type E. coli NCM3722, growth: P-lim chemostat, doubling time 12 h

Sequence | total protein half-life in vivo [1] [h] | total protein half-life in vivo [2] [h] | total protein half-life in vivo [3] [h] | total protein half-life in vivo [4] [h] | total protein half-life in vivo [5] [h] | total protein half-life in vivo (E. coli NCM3722 delta-hslV, growth: N-lim chemostat, doubling time 6 h) [h] | total protein half-life in vivo (E. coli NCM3722 delta-lon, growth: N-lim chemostat, doubling time 6 h) [h] | total protein half-life in vivo (E. coli NCM3722 delta-smpB, growth: N-lim chemostat, doubling time 6 h) [h] | total protein half-life in vivo [6] [h] | total protein half-life in vivo [7] [h] | total protein half-life in vivo [8] [h] | total protein half-life in vivo [9] [h]
MRLLNRLNQYQRLWQPSAGKPQTVTVSELAERCFCSERHVRTLLRQAQEAGWLEWQAQSGRGKRGQLRFLVTPESLRNAMMEQALETGKQQDVLELAQLAPGELRTLLQPFMGGQWQNDTPTLRIPYYRPLEPLQPGFLPGRAEQHLAGQIFSGLTRFDNNTQRPIGDLAHHWETSTDGLRWDFYLRSTLHWHNGDAVKASHLHQRLLMLLQLPALDQLFISVKRIEVTHPQCLTFFLHRPDYWLAHRLASYCSHLAHPQFPLIGTGPFRLTQFTAELVRLESHDYYHLRHPLLKAVEYWITPPLFEKDLGTSCRHPVQITIGKPEELQRVSQVSSGISLGFCYLTLRKSPRLSLWQARKVISIIHQSGLLQTLEVGENLITASHALLPGWTIPHWQVPDEVKLPKTLTLVYHLPIELHTMAERLQATLAAEGCELTIIFHNAKNWDDTTLQAHADLMMGDRLIGEAPEYTLEQWLRCDPLWPHVFDAPAYAHLQSTLDAVQIMPDEENRFNALKAVFSQLMTDATLTPLFNYHYRISAPPGVNGVRLTPRGWFEFTEAWLPAPSQ | 5.67 | 1.85 ± 0.39 | 3 ± 0.03 | 4.716 ± 0.0097 |  |  |  |  |  |  |  | 
MSQPITRENFDEWMIPVYAPAPFIPVRGEGSRLWDQQGKEYIDFAGGIAVNALGHAHPELREALNEQASKFWHTGNGYTNEPVLRLAKKLIDATFADRVFFCNSGAEANEAALKLARKFAHDRYGSHKSGIVAFKNAFHGRTLFTVSAGGQPAYSQDFAPLPADIRHAAYNDINSASALIDDSTCAVIVEPIQGEGGVVPASNAFLQGLRELCNRHNALLIFDEVQTGVGRTGELYAYMHYGVTPDLLTTAKALGGGFPVGALLATEECARVMTVGTHGTTYGGNPLASAVAGKVLELINTPEMLNGVKQRHDWFVERLNTINHRYGLFSEVRGLGLLIGCVLNADYAGQAKQISQEAAKAGVMVLIAGGNVVRFAPALNVSEEEVTTGLDRFAAACEHFVSRGSS | 3.59 ± 0.43 | 3.106 ± 0.012 | 4.44 ± 0.17 | 7.4513 ± 0.0042 | 3.17 ± 0.87 | 2.47 ± 0.25 | 2.97 ± 0.5 | 2.79 ± 0.15 | 2.67 ± 0.12 | 3.532 ± 0.018 | 5.09 ± 0.52 | 9.766 ± 0.073
MNIYRLSFVSCLVMAMPCAMAVEFNLNVLDKSMRDRIDISLLKEKGVIAPGEYFVSVAVNNNKISNGQKINWQKKGDKTIPCINDSLVDKFGLKPDIRQSLPQIDRCIDFSSRPEMLFNFDQANQQLNISIPQAWLAWHSENWAPPSTWKEGVAGVLMDYNLFASSYRPQDGSSSTNLNAYGTAGINAGAWRLRSDYQLNKTDSEDNHDQSGGISRTYLFRPLPQLGSKLTLGETDFSSNIFDGFSYTGAALASDDRMLPWELRGYAPQISGIAQTNATVTISQSGRVIYQKKVPPGPFIIDDLNQSVQGTLDVKVTEEDGRVNNFQVSAASTPFLTRQGQVRYKLAAGQPRPSMSHQTENETFFSNEVSWGMLSNTSLYGGLLISDDDYHSAAMGIGQNMLWLGALSFDVTWASSHFDTQQDERGLSYRFNYSKQVDATNSTISLAAYRFSDRHFHSYANYLDHKYNDSDAQDEKQTISLSVGQPITPLNLNLYANLLHQTWWNADASTTANITAGFNVDIGDWRDISISTSFNTTHYEDKDRDNQIYLSISLPFGNGGRVGYDMQNSSHSTIHRMSWNDTLDERNSWGMSAGLQSDRPDNGAQVSGNYQHLSSAGEWDISGTYAASDYSSVSSSWSGSFTATQYGAAFHRRSSTNEPRLMVSTDGVADIPVQGNLDYTNHFGIAVVPLISSYQPSTVAVNMNDLPDGVTVAENVIKETWIEGAIGYKSLASRSGKDVNVIIRNASGQFPPLGADIRQDDSGISVGMVGEEGHAWLSGVAENQLFTVVWGEQSCIIHLPERLEDTTKRLILPCH | 3.41 ± 0.16 |  | 4.23 |  | 2.97 |  |  |  | 2.94 | 3.79 | 3.94 | 11 ± 0.78
